{"source": "patent US20150175707A1", "key": {"[1]": {"molecular_target": "FcγRIIIa receptor, V158 (high affinity) variant, on Jurkat effector cells (UniProt P08637)", "assay": "cell-based or functional assay"}, "[2]": {"molecular_target": "Protein A (ready-to-use protein A sensortips, Fortebio) (Staphylococcus aureus) (UniProt P38507)", "assay": "ratio of the concentrations by A280 and by Octet protein A sensor tips"}, "[3]": {"molecular_target": "C1q from pooled human serum (human) (UniProt P02745)", "assay": "C1q binding ELISA; antibody dilution series coated, 3% pooled human serum as C1q source, anti-C1q detection"}, "[4]": {"molecular_target": "Protein A (ready-to-use protein A sensortips, Fortebio) (Staphylococcus aureus) (UniProt P38507)", "assay": "Octet QK, protein A sensor tips, against an IgG standard curve; A280 concentration of the sample 3818 µg/ml"}, "[5]": {"molecular_target": "IgG1-005-E345R/E430G/Y436I/S440K (human)", "assay": "HP-SEC of an equimolar mixture, PBS pH 7.4; Fc:Fc hetero-oligomerization"}, "[6]": {"molecular_target": "IgG1-005-E345R/E430G/S440K (human)", "assay": "HP-SEC of an equimolar mixture, PBS pH 7.4; Fc:Fc hetero-oligomerization"}, "[7]": {"molecular_target": "Protein A (ready-to-use protein A sensortips, Fortebio) (Staphylococcus aureus) (UniProt P38507)", "assay": "Octet QK, protein A sensor tips, against an IgG standard curve; A280 concentration of the sample 2905 µg/ml"}, "[8]": {"molecular_target": "IgG1-005-E345R/E430G/S440Y (human)", "assay": "HP-SEC with multiple angle light scattering; Fc:Fc self-oligomerization"}, "[9]": {"molecular_target": "IgG1-005-E345R/E430G/S440Y (human)", "assay": "dynamic light scattering, 2.86 mg/mL in PBS pH 7.4; Fc:Fc self-oligomerization"}}}
{"substance": "HuMab 005 (wild type IgG1-005), fully human IgG1,κ antibody against human CD38", "values": [{"measurement": "EC50 (ADCC reporter assay)", "setting": "[1]", "value": 0.0095, "unit": "µg/mL"}, {"measurement": "Maximal signal (ADCC reporter assay)", "setting": "[1]", "value": 335000, "unit": "RLU"}, {"measurement": "A280/Protein A × 100 (%)", "setting": "[2]", "value": 0.95, "unit": "%"}, {"measurement": "EC50", "setting": "[3]", "value": 1.55, "unit": "µg/mL"}, {"measurement": "Octet-Protein A (apparent IgG concentration)", "setting": "[4]", "value": 3620, "unit": "µg/mL"}]}
{"substance": "HuMab 005 mutant E345R (antibody)", "values": [{"measurement": "EC50", "setting": "[3]", "value": 0.836, "unit": "µg/mL"}]}
{"substance": "IgG1-005-E345R/E430G/K439E/S440Y (antibody)", "values": [{"measurement": "% multimers (HP-SEC)", "setting": "[5]", "value": 93, "unit": "%"}, {"measurement": "% multimers (HP-SEC)", "setting": "[6]", "value": 65, "unit": "%"}]}
{"substance": "IgG1-005-E345R/E430G/S440Y (antibody)", "values": [{"measurement": "Octet-Protein A (apparent IgG concentration)", "setting": "[7]", "value": 2050, "unit": "µg/mL"}, {"measurement": "apparent average MW of the multimeric peak (MALS)", "setting": "[8]", "value": 772, "unit": "kDa"}, {"measurement": "monomeric subunits per complex (MALS) (monomeric subunits)", "setting": "[8]", "value": 5.4}, {"measurement": "EC50 (ADCC reporter assay)", "setting": "[1]", "value": 0.036, "unit": "µg/mL"}, {"measurement": "Maximal signal (ADCC reporter assay)", "setting": "[1]", "value": 394000, "unit": "RLU"}, {"measurement": "A280/Protein A × 100 (%)", "setting": "[2]", "value": 0.71, "unit": "%"}, {"measurement": "EC50", "setting": "[3]", "value": 0.52, "unit": "µg/mL"}, {"measurement": "apparent MW (DLS)", "setting": "[9]", "value": 876, "unit": "kDa"}, {"measurement": "monomeric subunits per complex (DLS) (monomeric subunits)", "setting": "[9]", "value": 6.17}]}
